Results as given in US20190142860A1, “NUCLEIC ACID BASED TIA-1 INHIBITORS” (Aquinnah Pharmaceuticals, Inc., priority 2015, published 2019).

Experiments:
[1] = biological target: Nucleolysin TIA-1 (endogenous mouse TIA1) (mouse) (UniProt P52912); assay: TIA1 IP-MS, WT1 cortex
[2] = biological target: Nucleolysin TIA-1 (endogenous mouse TIA1) (mouse) (UniProt P52912); assay: TIA1 IP-MS, WT3 cortex
[3] = biological target: Nucleolysin TIA-1 (endogenous mouse TIA1) (mouse) (UniProt P52912); assay: TIA1 IP-MS, tau KO 3 cortex
[4] = biological target: Nucleolysin TIA-1 (endogenous mouse TIA1) (mouse) (UniProt P52912); assay: TIA1 IP-MS, WT2 cortex
[5] = biological target: Nucleolysin TIA-1 (endogenous mouse TIA1) (mouse) (UniProt P52912); assay: TIA1 IP-MS, tau KO 1 cortex
[6] = biological target: Nucleolysin TIA-1 (endogenous mouse TIA1) (mouse) (UniProt P52912); assay: TIA1 IP-MS, tau KO 2 cortex

Chain of UniProt P52912 (P52912 whole entry): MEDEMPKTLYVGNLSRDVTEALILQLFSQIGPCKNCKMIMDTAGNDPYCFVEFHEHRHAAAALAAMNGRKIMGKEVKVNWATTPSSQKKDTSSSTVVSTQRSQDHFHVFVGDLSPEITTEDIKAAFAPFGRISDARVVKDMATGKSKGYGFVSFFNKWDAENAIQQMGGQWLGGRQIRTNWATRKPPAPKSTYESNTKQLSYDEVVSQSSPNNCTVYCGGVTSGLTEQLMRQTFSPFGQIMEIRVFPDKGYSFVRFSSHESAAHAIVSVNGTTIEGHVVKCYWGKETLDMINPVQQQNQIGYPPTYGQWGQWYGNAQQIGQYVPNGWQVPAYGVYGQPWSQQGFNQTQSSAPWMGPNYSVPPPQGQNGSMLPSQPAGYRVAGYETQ

| Substance | total ion current (normalized to TIA1 = 1000) [1] | total ion current (normalized to TIA1 = 1000) [2] | total ion current (normalized to TIA1 = 1000) [3] | total ion current (normalized to TIA1 = 1000) [4] | total ion current (normalized to TIA1 = 1000) [5] | total ion current (normalized to TIA1 = 1000) [6] |
| --- | --- | --- | --- | --- | --- | --- |
| Dihydropyrimidinase-related protein 3 (from UniProt Q62188 1-570) | 0 | 14.7 | 0 | 192 | 0 | 96 |
| Dual specificity mitogen-activated protein kinase kinase 1 (from UniProt P31938 1-393) | 0 | 83.7 | 0 | 108 | 0 | 67.8 |
| Fructose-bisphosphate aldolase C (from UniProt P05063 2-363) | 0 | 41.6 | 0 | 69.5 | 0 | 43.2 |
| Glutathione S-transferase P 1 (from UniProt P19157 2-210) | 31.6 | 0 | 0 | 0 | 0 | 0 |
| Glycerol-3-phosphate dehydrogenase, mitochondrial (from UniProt Q64521 43-727) | 3.01 | 0 | 0 | 0 | 18.8 | 0 |
| Guanine nucleotide-binding protein G(z) subunit alpha (from UniProt O70443 2-355) | 0 | 0 | 0 | 59.4 | 0 | 0 |
| Histone H1.4 (from UniProt P43274 2-219) | 0 | 78.1 | 0 | 56 | 0 | 55.4 |
| Hypoxanthine-guanine phosphoribosyltransferase (from UniProt P00493 1-218) | 0 | 0 | 0 | 21 | 0 | 54.1 |
| Isoform 2 of 4-aminobutyrate aminotransferase, mitochondrial (from UniProt P61922 29-444) | 0 | 79.4 | 0 | 272 | 0 | 112 |
| Isoform 2 of AP-2 complex subunit beta (from UniProt Q9DBG3 2-951) | 0 | 67.8 | 0 | 105 | 0 | 102 |
| Isoform 2 of Focal adhesion kinase 1 (from UniProt P34152 2-1083) | 0 | 84.3 | 0 | 0 | 0 | 130 |

The remaining lines, values ahead:

| total ion current (normalized to TIA1 = 1000) [1] | total ion current (normalized to TIA1 = 1000) [2] | total ion current (normalized to TIA1 = 1000) [3] | total ion current (normalized to TIA1 = 1000) [4] | total ion current (normalized to TIA1 = 1000) [5] | total ion current (normalized to TIA1 = 1000) [6] | Substance |
| --- | --- | --- | --- | --- | --- | --- |
| 0 | 76.1 | 0 | 150 | 0 | 121 | Eukaryotic initiation factor 4A-I (from UniProt P60843 2-406) |
| 0 | 162 | 0 | 402 | 0 | 365 | Glutamate dehydrogenase 1, mitochondrial (from UniProt P26443 54-558) |
| 0 | 57.4 | 0 | 286 | 0 | 91.1 | Glutathione S-transferase Mu 1 (from UniProt P10649 2-218) |
| 0 | 68.5 | 0 | 0 | 0 | 75.3 | Guanine deaminase (from UniProt Q9R111 1-454) |
| 0 | 0 | 0 | 69.1 | 0 | 0 | Hemoglobin subunit alpha (from UniProt P01942 2-142) |
| 34.6 | 48.5 | 0 | 374 | 26.7 | 69.2 | Heterogeneous nuclear ribonucleoprotein R (from UniProt Q8VHM5 2-632) |
| 11.1 | 0 | 0 | 53.3 | 11.7 | 17 | Heterogeneous nuclear ribonucleoprotein U-like protein 2 (from UniProt Q00PI9 1-745) |
| 6.6 | 38 | 0 | 182 | 15.7 | 60.8 | High mobility group protein B1 (from UniProt P63158 1-215) |
| 0 | 138 | 0 | 186 | 0 | 155 | Isocitrate dehydrogenase [NAD] subunit alpha, mitochondrial (from UniProt Q9D6R2 28-366) |
| 0 | 0 | 0 | 110 | 0 | 29.9 | Isocitrate dehydrogenase [NAD] subunit, mitochondrial (from UniProt Q91VA7 34-384) |
| 0 | 36.3 | 0 | 62.9 | 0 | 75.8 | Isoform 2 of ATP-dependent 6-phosphofructokinase, muscle type (from UniProt P47857 1-850) |
| 0 | 0 | 0 | 121 | 0 | 0 | Isoform 2 of Alpha-adducin (from UniProt Q9QYC0 1-632) |
| 0 | 0 | 0 | 346 | 0 | 32.6 | Isoform 2 of Beta-adducin (from UniProt Q9QYB8 1-562) |
| 0 | 49.3 | 0 | 65.7 | 0 | 26.6 | Isoform 2 of C-terminal-binding protein 1 (from UniProt O88712 1-430) |
| 3.53 | 0 | 0 | 0 | 0 | 0 | Isoform 2 of Clathrin light chain B (from UniProt Q6IRU5 1-211) |
| 0 | 0 | 0 | 80.5 | 0 | 28.4 | Isoform 2 of Cytosol aminopeptidase (from UniProt Q9CPY7 1-488) |
| 0 | 0 | 0 | 0 | 144 | 0 | Isoform 2 of Gelsolin (from UniProt P13020 1-731) |
